Assay results reported in US20160200782A1 (MOERAE MATRIX, published 2016).

What was measured:
Test in all cases: cell-based or functional assay
[1] = target: PAK5(h) (human, UniProt Q9P286 1-719, limits assumed)
[2] = target: EGFR(T790M)(h) (human, UniProt P00533 696-1210, limits assumed)
[3] = target: PKA(h) (human)
[4] = target: cKit(V560G)(h) (human, UniProt P10721 544-976, limits assumed)
[5] = target: Plk1(h) (human, UniProt P53350 1-603, limits assumed)
[6] = target: PKCη(h) (human, UniProt P24723 1-683)
[7] = target: CK2α2(h) (human, UniProt P19784 1-350)
[8] = target: EGFR(L858R)(h) (human, UniProt P00533 696-1210, limits assumed)
Also: test concentration or dose not given here.

% activity [1] [%]	% activity [2] [%]	% activity [3] [%]	% activity [4] [%]	% activity [5] [%]	% activity [6] [%]	% activity [7] [%]	% activity [8] [%]	Binder
110	100	–	–	–	–	–	–	FAKLAARLYRKALARQLGVAA [MMI-0300]
–	–	119	124	119	98	96	52	KAFAKLAARLYRKALARQLGVAA [MMI-0400]
